Data from US20230028110A1.
Each block holds one substance with its values, some of them ahead of it.

Key:
[1] = target: PD-1 on activated CD4 and CD8 T-cells; test: flow cytometry on anti-CD3/anti-CD28-activated CD8 T-cells, anti-human IgG secondary antibody, % cells bound IgG
[2] = target: PD-1 on activated CD4 and CD8 T-cells; test: flow cytometry on anti-CD3/anti-CD28-activated CD4 T-cells, anti-human IgG secondary antibody, % cells bound IgG
[3] = target: FAPα on FAPα+ fibroblasts (human) (UniProt Q12884); test: flow cytometry on BJ fibroblasts, anti-human Fc secondary antibody, % IgG bound cells
[4] = target: Recombinant human FAPα (human) (UniProt Q12884); test: SPR (Reichert 4SPR), antibody on Protein A chip, antigen flown over
[5] = target: TIGIT on Vδ1 γδ T-cells (human) (UniProt Q495A1); test: flow cytometry, anti-human IgG secondary antibody, Vδ1 γδ T-cells
TIGIT on Vδ1 γδ T-cells (human), sequence (Q495A1 22-244, stated change not applied): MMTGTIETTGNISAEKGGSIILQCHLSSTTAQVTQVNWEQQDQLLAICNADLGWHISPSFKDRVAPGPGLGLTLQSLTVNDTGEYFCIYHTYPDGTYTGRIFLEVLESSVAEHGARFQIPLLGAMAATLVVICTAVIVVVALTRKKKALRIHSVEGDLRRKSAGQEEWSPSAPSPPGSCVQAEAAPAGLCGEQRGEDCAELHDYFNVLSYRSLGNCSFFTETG

[6] = target: Recombinant human TIGIT (human) (UniProt Q495A1); test: SPR (Reichert 4SPR), antibody on Protein A chip, antigen flown over
Recombinant human TIGIT (human), sequence (Q495A1 22-141 limits assumed): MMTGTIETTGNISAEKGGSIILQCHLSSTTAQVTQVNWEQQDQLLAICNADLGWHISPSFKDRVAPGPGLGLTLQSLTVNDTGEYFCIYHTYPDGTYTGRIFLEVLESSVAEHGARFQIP

[7] = target: TIGIT on activated CD8 T-cells (human) (UniProt Q495A1); test: flow cytometry, anti-human IgG secondary antibody, activated CD8 T-cells
TIGIT on activated CD8 T-cells (human), sequence (Q495A1 22-244 limits assumed): as the sequence (Q495A1 22-244, stated change not applied) above

[8] = target: OX40 on activated CD4 T-cells; test: flow cytometry on anti-CD3/anti-CD28-activated CD4 T-cells, anti-human IgG secondary antibody, % cells bound IgG
OX40 on activated CD4 T-cells, sequence (chain, as listed by the source limits assumed): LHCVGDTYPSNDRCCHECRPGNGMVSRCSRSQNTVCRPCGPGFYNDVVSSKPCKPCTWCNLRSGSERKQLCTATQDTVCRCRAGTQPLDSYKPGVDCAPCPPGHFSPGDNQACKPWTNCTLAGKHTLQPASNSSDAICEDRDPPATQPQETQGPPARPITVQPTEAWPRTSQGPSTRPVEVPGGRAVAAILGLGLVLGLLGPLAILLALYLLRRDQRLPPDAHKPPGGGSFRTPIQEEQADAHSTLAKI

[9] = target: Recombinant human OX40 (human) (UniProt P43489); test: SPR (Reichert 4SPR), antibody on Protein A chip, antigen flown over
Recombinant human OX40 (human), sequence (P43489 29-216 limits assumed): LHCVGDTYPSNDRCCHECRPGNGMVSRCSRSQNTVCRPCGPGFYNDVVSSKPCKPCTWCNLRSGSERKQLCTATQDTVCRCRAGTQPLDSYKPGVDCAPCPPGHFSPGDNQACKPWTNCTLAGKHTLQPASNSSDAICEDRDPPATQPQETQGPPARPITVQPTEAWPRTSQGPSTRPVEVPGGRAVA

PD-1 on activated CD4 and CD8 T-cells, sequence (chain, as listed by the source limits assumed): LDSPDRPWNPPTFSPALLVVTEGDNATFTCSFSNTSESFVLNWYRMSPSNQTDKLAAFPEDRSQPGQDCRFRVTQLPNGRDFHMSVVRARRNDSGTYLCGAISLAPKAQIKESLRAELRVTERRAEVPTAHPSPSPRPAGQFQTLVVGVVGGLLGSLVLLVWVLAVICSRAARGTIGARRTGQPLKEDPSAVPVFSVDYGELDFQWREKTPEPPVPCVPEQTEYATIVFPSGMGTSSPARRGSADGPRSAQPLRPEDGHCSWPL

EC50 (read off the curve) [1]: 0.1 nM | EC50 (read off the curve) [2]: 0.2 nM
Substance: Anti-PD-1 antibody (based on pembrolizumab)

EC50 (read off the curve) [3]: 0.08 nM | Kd [4]: 3.9 nM
Substance: Anti-FAPα monoclonal antibody (based on sibrotuzumab)

EC50 (read off the curve) [5]: 8 nM | Kd [6]: 0.3 nM | EC50 (read off the curve) [7]: 0.4 nM
Substance: Anti-TIGIT antibody (based on tiragolumab)

EC50 (read off the curve) [8]: 0.1 nM | Kd [9]: 0.82 nM
Substance: Anti-OX40 antibody (based on pogalizumab)
